Substrate in the data set: CCn1c(=NN=c2sc3cc(S(=O)(=O)O)ccc3n2CC)sc2cc(S(=O)(=O)O)ccc21
The experiment in a line: purified protein. The note with it: 1 mM H2O2, 50 mM KH2PO4 pH 6.5, 30 °C.

B1: soluble HRP P. pastoris (Armoracia rusticana) (protein)
chain: QLTPTFYDNSCPNVSNIVRDTIVNELRSDPRIAASILRLHFHDCFVNGCDASILLDNTTSFRTEKDAFGNANSARGFPVIDRMKAAVESACPRTVSCADLLTIAAQQSVTLAGGPSWRVPLGRRDSLQAFLDLANANLPAPFFTLPQLKDSFRNVGLNRSSDLVALSGGHTFGKNQCRFIMDRLYNFSNTGLPDPTLNTTYLQTLRGLCPLNGNLSALVDFDLRTPTIFDNKYYVNLEEQKGLIQSDQELFSSPNATDTIPLVRSFANSTQTFFNAFVEAMDRMGNITPLTGTQGQIRLNCRVVNSNS
For B1, the Vmax (usually the top rate of the reaction or transport when substrate is in excess) is 152 µmol/min/mg.

B2: refolded HRP E. coli (HRP C1A refolded from inclusion bodies) (Armoracia rusticana) (protein)
chain: B1 chain
On to B2, for which, for the setting “ABTS 0.005–10 mM”, the Michaelis constant (Km) (in general, the substrate concentration at which the rate is half of its maximum) was 1250 ± 100 µM and the maximum rate (Vmax) amounted to 62.5 µmol/min/mg.

(Values after article PMC5453243.)
